Results from patent EP3250590B1 (Academia Sinica, dated 2021).

B1: 3rd humanized MC41 IgG (antibody, V domains shown)
VH: QVQLKESGPGLVAPSKTLSLTCTVSGFSLSSQGVYWIRQPPGKGLEWIGAIWAGGSTNYNSALMSRLSISKDNSKSQVFLKMNSLQTDDTAMYYCARVDGYRGYNMDYWGQGTSVTVSS
VL: ENVLTQSPAIMSATPGEKVTMTCSASSSVSYMHWYQQKSSTSPKLWIYDTSKLASGVPGRFSGSGSGNSYTLTISSMEAEDVATYYCFQGSGYPLTFGAGTKLEIKR
notes: also called 3rd-hMC41
B2: 2nd humanized MC41 IgG (antibody, V domains shown)
VH: QVQLKESGPGLVAPSKTLSLTCTVSGFSLSSQGVYWIRQPPGKGLEWIGAIWAGGSTNYNSALMSRLSISKDNSKSQVFLKMNSLQTDDTAMYYCARVDGYRGYNMDYWGQGTLVTVSS
VL: ENVLTQSPAIMSATPGEKVTMTCSASSSVSYLHWYQQKSSTSPKLWIYDTSKLASGVPGRFSGSGSGNSYTLTISSMEAEDVATYYCFQGSGYPLTFGAGTKLEIKR
notes: also called hMC41; humanized 2nd IgG
B3: chimeric MC41 (antibody, V domains shown)
VH: QVQLKESGPGLVAPSKSLSITCTVSGFSLSSQGVYWVRQPPGKGLEWLGAIWAGGSTNYNSALMSRLSISKDNSKSQVFLKMNSLQTDDTAMYYCARVDGYRGYNMDYWGQGTSVTVSS
VL: ENVLTQSPAIMSASPGEKVTMTCSASSSVSYMHWYQQKSSTSPKLWIYDTSKLASGVPGRFSGSGSGNSYSLTISSMEAEDVATYYCFQGSGYPLTFGAGTKLELKR
notes: Chimeric intact IgG of murine MC41; also called chMC41

What follows are binders tested against T1, BSA (bovine, UniProt P02769 25-607) (assay: ELISA, intact IgG on coated BSA).
T1 construct: also called BSA control protein; bovine serum albumin
T1 sequence (P02769 25-607 limits assumed): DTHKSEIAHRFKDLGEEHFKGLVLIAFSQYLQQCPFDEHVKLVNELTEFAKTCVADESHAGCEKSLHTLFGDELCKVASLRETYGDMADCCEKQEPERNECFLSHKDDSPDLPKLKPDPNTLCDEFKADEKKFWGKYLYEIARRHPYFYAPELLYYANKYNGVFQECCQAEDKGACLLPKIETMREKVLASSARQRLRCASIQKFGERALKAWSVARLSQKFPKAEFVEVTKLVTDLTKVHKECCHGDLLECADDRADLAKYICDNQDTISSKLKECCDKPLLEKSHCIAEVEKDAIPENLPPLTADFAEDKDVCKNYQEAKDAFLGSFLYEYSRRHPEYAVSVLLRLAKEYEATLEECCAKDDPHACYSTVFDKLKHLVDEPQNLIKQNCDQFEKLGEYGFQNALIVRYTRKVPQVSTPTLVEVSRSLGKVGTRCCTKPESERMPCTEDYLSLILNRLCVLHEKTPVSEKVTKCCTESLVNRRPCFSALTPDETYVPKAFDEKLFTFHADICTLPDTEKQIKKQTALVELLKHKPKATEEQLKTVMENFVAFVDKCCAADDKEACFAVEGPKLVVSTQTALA

Binding result, no binding:
B1, B2, B3
